Results on one protein are retold here after doi:10.1101/2021.10.27.466080, “The structure of a native orthobunyavirus ribonucleoprotein reveals a key role for viral RNA in maintaining its helical architecture” (bioRxiv, 2021).

The series deals with the molecule itself. Description: cryo-EM structure; native BUNV RNPs purified from virions, TNE with 25 mM NaCl; cryo-ET sub-tomogram average (20 Å) used as reference for a single-particle average with helical symmetry at 13 Å; 'split' NP from PDB 3ZLA fitted flexibly by molecular dynamics (MDFF).

B1: Bunyamwera virus (BUNV) nucleocapsid protein (NP) (natural protein)
chain: MIELEFHDVAANTSSTFDPEVAYANFKRVHTTGLSYDHIRIFYIKGREIKTSLAKRSEWEVTLNLGGWKITVYNTNFPGNRNNPVPDDGLTLHRLSGFLARYLLEKMLKVSEPEKLIIKSKIINPLAEKNGITWNDGEEVYLSFFPGSEMFLGTFRFYPLAIGIYKVQRKEMEPKYLEKTMRQRYMGLEAATWTVSKLTEVQSALTVVSSLGWKKTNVSAAARDFLAKFGINM
notes: Nucleocapsid protein (NP) of Bunyamwera virus, as it stands in native ribonucleoproteins (RNPs) with the genomic RNA; NP stands in the RNP as a helical polymer wrapped around viral genomic RNA (S, M, L segments); about 3.7 NP per helical turn; The number of copies depends on the segment; also called BUNV NP; nucleoprotein; source: native RNPs purified from BUNV virions propagated in BHK-21 cells …
Turning to B1, the binding result was “binds”.
